From US20240207311A1, “TUMOR INFILTRATING LYMPHOCYTES THERAPY” (Alethia Biotherapeutics Inc., priority 2021, published 2024)
“Also recorded” adds a separate entry of the source.

B1: AB-16B5: anti-clusterin antibody, murine 16B5 (VL SEQ ID NO:7, VH SEQ ID NO:8), used in the mouse studies (antibody, V domains shown)
VH: EVQLQQSGAELVKPGASVRLSCTTSGFNIKDIYMHWVKQRPEQGLEWIGRIDPAYGNTKYDPKFQGKATITADTSSNTAYLQLSSLTSEDTAVYYCARRYDTAMDYWGQGTSVTVSS
VL: DIVMSQSPSSLAVSAGEKVTMSCKSSQSLLNSRTRKNYLAWYQQKPGQSPKLLIYWASTRESGVPDRFTGSGSGTDFTLTISSVQAEDLAVYYCKQSYNLWTFGGGTKLEFK
modifications: Murine 16B5 VH; Murine 16B5 VL

Assays:
Assay type in all cases: in vivo, Balb/c mice
4T1 primary tumors = assay: CD45+ immune cells purified from excised 4T1 primary tumors (Example 2); conditions: monotherapy (Group 2 docetaxel; Group 5 AB-16B5); primary tumors excised at Day 16
Excerpt: The primary tumors excised at Day 16 post implantation, were processed with collagenase and hyaluronidase and immune cells were purified by positive selection using magnetic latex beads coated with an anti-CD45 antibody. The purified cells were transferred into small petri dishes containing culture medium supplemented with IL2 and IL7 to perform phenotypic analyses.

[1] = tested on: 4T1 mouse mammary carcinoma cells; assay: Number of metastatic lung nodules in 4T1-implanted animals (Example 2); conditions: monotherapy IP for 5 weeks (Group 2 docetaxel 10 mg/kg weekly; Group 5 AB-16B5 twice weekly); counted Day 37
Method: Five groups, each consisting of 10 female Balb/c mice were assigned to this study (see Table 1 below). All animals received subcutaneous implantation of 4T1 mouse mammary carcinoma cells in the 4th inguinal mammary gland. Treatment was initiated on the day of implantation (defined as Day 1). Animals from Group 1 (Gr. 1) received IP treatment of saline vehicle control twice a week for the duration of the study. Animals from Group 2 (Gr. 2) received 10 mg/kg of docetaxel weekly for five weeks by IP administration. Animals from Group 3 (Gr. 3) received 10 mg/kg of docetaxel weekly for two weeks and 10 mg/kg of AB-16B5, twice weekly for five weeks. Animals from Group 4 (Gr. 4) received 10 mg/kg of docetaxel weekly and 5 mg/kg of 16B5 twice weekly each over the course of a five weeks treatment. Animals from Group 5 (Gr. 5) received AB-16B5 twice weekly for five weeks. On Day 36, the primary tumors were excised and on Day 37, the animals were sacrificed and the number of grossly visible metastatic nodules on the surface of the lungs was counted.

4T1 lung metastases = assay: Immunohistochemistry of lung metastases in 4T1-implanted mice (Example 1); conditions: 10 mg/kg IP thrice a week
Excerpt: Balb/c mice were orthotopically implanted with 5×10^5 4T1 cells in the 4th mammary fat pad. Animals received IP saline treatment thrice weekly. The primary tumor was surgically removed at Day 16 post-implantation. The animals were sacrificed at Day 36 and the lungs were excised. Tissues were fixed in paraformaldehyde and processed for paraffin embedding. Tissue sections were probed with anti-mouse CD3, anti-mouse CD8 and anti-mouse B220 antibodies. […] Results presented in FIG. 1 indicate that the 4T1 lung metastases create an immune cold microenvironment which prevents the infiltration of B and T lymphocytes in tumors. Delineated regions indicate that CD3 and CD8 T lymphocytes are restricted in the tumor margin as a consequence of EMT.
Animals bearing 4T1 tumors were treated with the AB-16B5 antibody (murine 16B5) thrice a week IP at 10 mg/kg. The primary tumor was surgically removed at Day 16 post-implantation. The animals were sacrificed at Day 36 and the lungs were excised. Tissues were fixed in paraformaldehyde and processed for paraffin embedding. Tissue sections were probed with anti-mouse CD3, anti-mouse CD8 and anti-mouse B220 antibodies.

| Molecule | CD45+ immune cells in primary tumors (4T1 primary tumors) | metastatic lung nodules [1] | plasmocytes penetration in tumors (4T1 lung metastases; Day 36) | T lymphocyte infiltration of lung metastases (4T1 lung metastases; Day 36, anti-CD3, anti-CD8 staining) | lung metastases (number and size) (4T1 lung metastases; lungs excised Day 36, FIG. 2) |
| --- | --- | --- | --- | --- | --- |
| CC(=O)O[C@@]12CO[C@@H]1C[C@H](O)[C@@]1(C)C(=O)[C@H](O)C3=C(C)[C@@H](OC(=O)[C@H](O)[C@@H](NC(=O)OC(C)(C)C)c4ccccc4)C[C@@](O)([C@@H](OC(=O)c4ccccc4)[C@H]21)C3(C)C [docetaxel] | very few CD45+ were present | as many metastatic lung nodules as the saline control group; also recorded: relatively ineffective |  |  |  |
| B1 | more immune cells | less metastatic lung nodules than the saline-control-treated mice | evidence of plasmocytes penetration | densely infiltrated with CD3 and CD8 T cells | fewer and much smaller lung metastases |
